Data from article PMC4928626.

Tests used:
[1] = molecular target: aerobactin synthetase IucA from hypervirulent Klebsiella pneumoniae hvKP1 (Klebsiella pneumoniae hvKP1 (hypervirulent pathotype)); assay: native gel or EMSA
[2] = molecular target: aerobactin synthetase IucA from hypervirulent Klebsiella pneumoniae hvKP1 (Klebsiella pneumoniae hvKP1 (hypervirulent pathotype)); assay: SEC
[3] = molecular target: aerobactin synthetase IucA from hypervirulent Klebsiella pneumoniae hvKP1 (Klebsiella pneumoniae hvKP1 (hypervirulent pathotype)); assay: SAXS

Measured: stoichiometry N

aerobactin synthetase IucA from hypervirulent Klebsiella pneumoniae hvKP1 (from UniProt A0ACD7U9R1 1-596) (enzyme)
4: [1] | [2] | [3]
